Test results as given in patent US12624096B2, “Anti-tau antibodies and methods of use thereof” (GTInvent Limited, priority 2020, dated 2026).

Tests used:
[1] = target: htau40 (Homo sapiens, UniProt P10636); assay: Biacore X100 SPR of anti-tau mAbs on immobilised htau40; assay type: binding
Procedure: For anti-tau mAb SPR measurements, htau40 was conjugated to the surface of a CM5 sensor chip using amine coupling as explained previously. Briefly, 2 μg/mL htau40 in 10 mM Sodium acetate buffer (pH 4.0) was passed over the activated chip surface (EDC/NHS) in flow cell 2 for a period for 45 s followed by blocking with 1 M ethanolamine-HCl PH 8.5. Flow cell 1 was set up as reference control and blocked simultaneously. Final immobilisation level of htau40 (Rmax) was approximately 250 RU. Following a minimum of three start-up cycles, increasing concentrations (0.78 nM-25 nM) of the mAb in HBS-EP+ buffer was added at a rate of 30 μL/min to the chip. The mAb was added for a 120 s association period and 600 s dissociation period followed by a regeneration cycle of 30 s injection of glycine buffer pH 1.5 in between each cycle. Binding responses were analysed in Biacore X100 evaluation software and data fitted to a 1:1 binding model to obtain kinetic and affinity characterisation.
For anti-tau mAb SPR measurements (Biacore X100™) and epitope mapping, the same methodologies described above (see Example 16) were followed. Kinetic rates and equilibrium binding constants of additional anti-tau mAbs and the regions recognised on hT40 are given in the Table 25 below

[2] = target: hT40 (Homo sapiens, UniProt P10636); assay: Biacore X100 SPR, scAb captured via anti-HuCk, hT40 as analyte; assay type: binding
Procedure: Surface plasmon resonance (SPR) is widely regarded as the gold standard for real time measurement of protein-protein interactions such as antibody binding. All SPR experiments were carried out using a Biacore X100 machine and HBS EP+ running buffer (GE Healthcare). A ‘capture’ method was followed for affinity measurements, where an anti-human constant kappa chain (HuCk) antibody was conjugated to the surface of a CM5 sensor chip using an amine coupling kit and scAb molecules were immobilised via their HuCk domain. Amine coupling is a very common approach for immobilising the ligand to the chip surface. […] The capture antibody was diluted 1/100 in 10 mM Sodium acetate buffer pH 5.0 and passed over the activated chip surface for a period of at least 420 s. Final ligand immobilisation levels over 12,000 RU were deemed to be satisfactory.
Following immobilisation, the level of each scAb to be captured was identified using the standard SPR equation with a theoretical RMax of 100 RU. Analyte MW refers to the molecular weight of hT40 or dGA/dGAE molecules, while ligand MW refers to the molecular weight of the scAbs tested. RL is the desired capture level and S refers to the stoichiometric ratio:
The scAb to be tested was added only to flow cell 2 so that flow cell 1 could act as a control to subtract any interaction with the analyte and the chip surface. Both single and multi-cycle runs were utilised using wizards developed in the Biacore X100 control software which are both accepted methods of kinetic analysis (Karlsson, R., et al. Analyzing a kinetic titration series using affinity biosensors (2006) Analytical Biochemistry 349:136-47). The multi-cycle protocol was as follows-Three start-up cycles composed of an initial capture, to the desired level, of the scAb to be tested was performed followed by a 30 s injection of glycine buffer pH 2.0 after each cycle to regenerate the chip surface. […] Following three start-up cycles increasing concentrations (0.15625 nM-100 nM) of the target to be tested were added to the chip surface after the desired scAb capture. The target was added for a 120 s association period and 420 s dissociation period followed by another regeneration, 30 s injection of glycine buffer pH 2.0 in between each cycle.
The single cycle kinetics protocol was similar and utilised the same level of scAb capture. Three start-up cycles were used followed by 5 increasing concentrations of the analyte (6.25 nM-100 nM) for an association period of 120 s followed by a dissociation period of 420 s for each concentration. In single cycle kinetics the regeneration step was performed only after the final analyte concentration was added. Binding responses were analysed in Biacore X100 evaluation software and data fitted to a 1:1 binding model to obtain kinetic and affinity characterisation.

[3] = newly converted mAbs, Table 25 (Example 28), hT40
[4] = mAb, Table 27, immobilised hT40
[5] = '3a' and '3b' scAbs, Table 25, hT40

Sequence of htau40 (P10636 1-441 isoform P10636-8): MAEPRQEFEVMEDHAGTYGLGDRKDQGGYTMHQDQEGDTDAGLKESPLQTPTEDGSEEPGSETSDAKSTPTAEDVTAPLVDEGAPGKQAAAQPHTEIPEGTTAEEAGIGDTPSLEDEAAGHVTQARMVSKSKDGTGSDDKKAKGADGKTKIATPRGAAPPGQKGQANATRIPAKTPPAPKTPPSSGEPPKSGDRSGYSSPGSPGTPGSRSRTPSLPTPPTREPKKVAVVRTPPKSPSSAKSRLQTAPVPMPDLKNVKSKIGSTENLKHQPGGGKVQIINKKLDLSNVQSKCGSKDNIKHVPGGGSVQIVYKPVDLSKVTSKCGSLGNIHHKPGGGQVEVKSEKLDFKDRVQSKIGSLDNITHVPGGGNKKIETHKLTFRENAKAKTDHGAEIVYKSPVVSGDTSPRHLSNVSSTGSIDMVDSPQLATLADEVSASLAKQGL
Sequence of hT40 (P10636 1-441 isoform P10636-8): as above

B1: 3bD11 (protein)
scFv: RVRLQGSGPSLVKPSQTLSLTCTVSGFSFDSYYVGWVRQAPGKALEWLGNIYSTGRAFYNPALKSRLSITRDTSKSQVSLSVSSVTIEDTALYYCVRGSYYHGGGNGMVDFFDYWSPGLLVTVSSEGKSSGASGESKVDDQVVRTQPSSVSGSLGQRVSITCSGSSSNVGYGNYVGWFQQVPGSAPKLLIYAATSRASGVPDRFSGSRSGNTATLTIDSLQAEDEADYYCSSYQRGNTGVFGSGTRLTVLG
For B1, the ka [1, 3] was 2.671e+06 M⁻¹ s⁻¹ and the kd [1, 3] was 0.003979 s⁻¹.

B2: CE3: anti-tau clone, SEQ ID NO: 367 (protein)
scFv: QVRLQESGPSLVKPSQTLSVTCTVSGFSLISNAVGWVRQAPGKVPESLAGCSSDGKCYYNSALKSRLDITRDTSKNQISLSLSSVTTDDAAVYYCTRGYYPVYGYDYLGTIDYWGPGLLVTVSSEGKSSGASGESKVDDQAVLTQPSSVSGSLGQRVSITCSGSSSNVGRNDVAWFQQLPGSGLRTIIYGTTSRPSGIPDRFSGSKSGVTATLTIDSLQAEDEADYFCASGDSSAINDIFGSGTRLTVLG
modifications: CE3 amino acid sequence
For B2, the ka ([2]; scAb, Table 23, T441 (hT40)) was 174500 M⁻¹ s⁻¹, the kd ([2]; scAb, Table 23, T441 (hT40)) was 0.000662 s⁻¹ and the ka [1, 4] was 103000 M⁻¹ s⁻¹. The kd [1, 4] was 0.001718 s⁻¹.

B3: 3aA6: anti-tau clone, sequence in b345 (protein)
scFv: QVRLQESGSSLVKPSQTLSLVCTVSGFPLTSNAVGWVRQAPGKAPEWLGLIDIDGDTAYNPALESRLSITRDTSKSQVSLSLSSVAIEDTAVYYCARHYDKWGYADSIDYWGPGLLVTVSSEGKSSGASGESKVDDQALLTQPSSVFGSLGQRVSITCSGSSSNVGYGDYVGWYQQVPGSAPKLLIYDATTRASGVPDRFSGSRSGNTATLTISSLQAEDEADYYCASYQNERSGVFGSGTRLTVLG
modifications: 3aA6 amino acid sequence
With B3 the ka [2, 5] was 19000 M⁻¹ s⁻¹ and the kd [2, 5] was 0.0188 s⁻¹.

B4: 3aG3: anti-tau clone, SEQ ID NO: 424 (protein)
scFv: QVQLQESGPSLVKPSQTLSLTCTVSGFSLSSNGVGWVRQAPGKVPEWVGDISSSGKAYANPALKSRLSITRDTAKTQVFLSLSSVTTEDTAVYYCVRCRDGGVSYGYDIDYWGPGLLVTVSSEGKSSGASGESKVDDQAVLTQPPSVSGSPGQRVSITCSGSSSNIGGGNYLSWFQQVPGSAPKLLIYGATSRASGVPDRFSGSRSGNTATLTISSLQAEDEADYYCASFDTSSGGIFGAGTRLTVLG
modifications: 3aG3 amino acid sequence
Molecule B4 has a ka [2, 5] of 62940 M⁻¹ s⁻¹, a kd [2, 5] of 0.0003869 s⁻¹ and a ka [1, 3] of 1.532e+07 M⁻¹ s⁻¹. For the same molecule, the kd [1, 3] was 0.004751 s⁻¹.

B5: MD9/MoD9: anti-tau clone, SEQ ID NO: 373 (protein)
scFv: QVRLQESGPSLVKSSQTLSLTCTVSGFSLTRESIAWVRQAPGKVPEWLGGVGIDGTSYYSPALKSRLSITRDTSKSQASLSLSSVATEDTAMYYCARNYIDFEYWGPGLLVTVSSEGKSSGASGESKVDDQAVLTQLSSVSGSLGQRISITCSGSSSNVGIYDVSWFQQLPGSGLRTVIYGTNNRPSGVPDRFSGSRSGNTATLTISSLQSEDEAIYYCAAGDSSTIAVFGSGTRLTVLG
modifications: MD9 amino acid sequence
For B5, the ka [1, 3] was 66200 M⁻¹ s⁻¹ and the kd [1, 3] was 0.001462 s⁻¹.

B6: 3bG4: anti-tau clone, SEQ ID NO: 425 (protein)
scFv: QVQLQESGPSLVKPSQTLSLTCTISGFSLISNGVGWVRQAPGKVPEWVGDIASSGKAYSNPALKSRLSITRDTSKSQVSLSLRSVTTEDTAVYYCVRCRDGGVTYGYDIDYWGPGLLVTVSSEGKSSGASGESKVDDQAVLTQPSSVSKSLGQSVSITCSGSTSNVGSGNDVSWFQQVPGSAPKLLFYGATNRASGVPDRFSGSRSGNTATLTITSLQAEDEADYYCGSYDSNSGGIFGSGTRLTVLG
modifications: 3bG4 amino acid sequence
B6 showed a ka [2, 5] of 6.669e+06 M⁻¹ s⁻¹, a kd [2, 5] of 0.05966 s⁻¹ and a ka [1, 3] of 4.54e+06 M⁻¹ s⁻¹. For the same molecule, the kd [1, 3] was 0.0002964 s⁻¹.

B7: 3bF4: anti-tau clone, SEQ ID NO: 421 (protein)
scFv: QVQLQESGPSLVKPSQTLSLTCTVSGFSLSSNGVGWVRQAPGKVPEWLGDISSVGKKYANPALKSRLSFTRDTSKSQVSLSLSSVTTEDTAVYYCVKCRDGGVTYGYDIDYWGPGLLVTVSSEGKSSGASGESKVDDQAVLTQPSSVSKSTGQTVSITCSGSSSNVGLRNYVTWFQQVPGSAPKLLIYGATSRASGIPDRFSGSRSGNTATLIISSLQAEDEADYYCASADTNDGGVFGSGTRLTVLG
modifications: 3bF4 amino acid sequence
For B7, the ka [2, 5] was 109300 M⁻¹ s⁻¹ and the kd [2, 5] was 0.01532 s⁻¹.

B8: 3aH6: anti-tau clone, SEQ ID NO: 423 (protein)
scFv: QVQLQESGPSLVKPSQTLSLTCTVSGFSLSSNGVGWVRQAPGKVPEWLGDISSVGKKYANPALKSRLSFTRDTSKSQVSLSLSSVTTEDTAVYYCVKCRDGGVTYGYDIDYWGPGLLVTASSEGKSSGASGESKVDDQAVVTQPSSVSGSLGQSVSITCSGSSGNVGYGDYVSWFQQFHGSAPKLLIYGATNLASGVPARFSGSRSGNTATLTISSLHAEDEADYYCASYDSSSGGVFGSGTRLTVLG
modifications: 3aH6 amino acid sequence
B8 showed a ka [2, 5] of 2.757e+06 M⁻¹ s⁻¹, a kd [2, 5] of 0.009868 s⁻¹ and a ka [1, 3] of 3.128e+06 M⁻¹ s⁻¹. For the same molecule, the kd [1, 3] was 0.0001522 s⁻¹ and the Kd ([1]; newly converted mAbs, Table 25 (Example 28), read-out: kD (M) for hT40 binding) was 4.9e-11 M.

B9: 3aB7: anti-tau clone, SEQ ID NO: 420 (protein)
scFv: QVQLQESGPSLVKPSQTLSLTCTVSGFSLTSNGVGWVRQAPGKVPEWVGDKSSAGKTYGNPALKSRLSITRDTSKSQVSLSLSSVTTEDTAVYYCVRCRDGGVTYGYDVDYWGPGLLVTVSSEGKSSGASGESKVDDQAVLTQPSSVSKSLGQSVSITCSGSSSNVGYGDVVSWFQQFPGSAPKLLIFGTTTRASGVPDRFSGSRSGNAATLTINSLQAEDEADYYCASFDSDSGGIAGSGTRLTVLG
modifications: 3aB7 amino acid sequence
Molecule B9 has a ka [2, 5] of 207200 M⁻¹ s⁻¹ and a kd [2, 5] of 0.01435 s⁻¹.
